“And” between values parts separate entries of the source, which are not always exact repeats. Identical values can stand only once.
Target: GST fused GRP78 protein (GST-GRP78) purified from E. coli (UniProt P11021 19-654)
Test: ELISA

B1: toxin-labeled GD17 single-chain antibody (GD17scFv-PE40) (scFv)
scFv: MDHHHHHHHHHHKLQVQLQQSGAELARPGASVKLSCKASGYTFTSYWMHWVKQRPGQGLEWIGAIYPGDGDTRYTQKFKGKATLTADKSSSTAYMQLSSLASEDSAVYYCASGITAVADYWGQGTTLTVSSGGGGSGGGGSGGGGSDVVMTQTPLSLPVSLGDQASISCRSSQSLVHSNGNTYLHWYLQKPGQSPKLLIYKVSNRFSGVPDRFSGSGSGTDFTLKISRVEAEDLGVYFCSQSTHVPLTFGAGTKLELKEFGGAPEFPKPSTPPGSSGLEGGSLAALTAHQACHLPLETFTRHRQPRGWEQLEQCGYPVQRLVALYLAARLSWNQVDQVIRNALASPGSGGDLGEAIREQPEQARLALTLAAAESERFVRQGTGNDEAGAANADVVSLTCPVAAGECAGPADSGDALLERNYPTGAEFLGDGGDVSFSTRGTQNWTVERLLQAHRQLEERGYVFVGYHGTFLEAAQSIVFGGVRARSQDLDAIWRGFYIAGDPALAYGYAQDQEPDARGRIRNGALLRVYVPRSSLPGFYRTSLTLAAPEAAGEVERLIGHPLPLRLDAITGPEEEGGRLETILGWPLAERTVVIPSAIPTDPRNVGGDLDPSSIPDKEQAISALPDYASQPGKPPDYKDDDDKKDEL
EC50: 1.41 nM and 1.25 nM

From patent US20100041074A1 (published 2010)
